{
  "source": "patent US20210371505A1",
  "assay_in_all_cases": "cell-based or functional assay",
  "key": {"[1]": {"molecular_target": "Hemagglutinin of influenza virus A/Philippines/01/1982 (H3N2) (Influenza A virus A/Philippines/01/1982 (H3N2))"}, "[2]": {"molecular_target": "Hemagglutinin of influenza virus A/Aichi/02/1968-PR8-X31 (H3N2) (Influenza A virus A/Aichi/02/1968-PR8-X31 (H3N2)) (UniProt P03437)"}, "[3]": {"molecular_target": "Hemagglutinin of influenza virus A/Shanghai/01/2013-PR8 (H7N9) (Influenza A virus A/Shanghai/01/2013-PR8 (H7N9))"}},
  "data": [
    {"binder": "H1H14612N2 (antibody, V domains shown) VH: EVQLVESGGGLVKPGGSLRLSCAASGFSFSGFSMNWVRQAPGKGLEWVSSISTSGNYMYYADSVKGRFTISRDNAKKSFSLQMNSLRAEDSAIYYCARGGGYNWNLFDYWGQGSLVTVSS VL: EIVLTQSPGTLSLSPGERATLSCRASQSLNSNYLAWYQQKPGQAPRLLIYGASSRATGIPDRFSGSGSGADFTLTISRLESEDFAVYYCQQYGNSPLTFGGGTKVEIK", "values": [
      {"measurement": "IC50 of neutralization, cell viability microneutralization assay on MDCK cells", "setting": "[1]", "result": 37.6, "unit": "nM"},
      {"measurement": "EC50, complement-dependent cytotoxicity of virus-infected MDCK cells", "setting": "[2]", "result": 126, "unit": "nM"},
      {"measurement": "IC50 of neutralization, cell viability microneutralization assay on MDCK cells", "setting": "[2]", "result": 5.7, "unit": "nM"},
      {"measurement": "maximum lysis, complement-dependent cytotoxicity of virus-infected MDCK cells", "setting": "[2]", "result": 86.3, "unit": "%"},
      {"measurement": "IC50 of neutralization, cell viability microneutralization assay on MDCK cells", "setting": "[3]", "result": "> 6670", "unit": "nM"}
    ]}
  ]
}
